PMC3463533

Key:
[1] = NP-40-insoluble fraction, anti-V5 immunoblot
[2] = anti-V5 immunoblot of culture medium
[3] = glycan lost, control: wild type
[4] = glycan changed form, control: untreated
[5] = glycan lost, control: untreated

## Surfactant protein A2 (SP-A2): N207A
[1]; [3]
  other: NP-40-insoluble aggregation: increases
[2]; [3]
  expression_or_secretion: decreases

## Surfactant protein A2 (SP-A2): N207Q
[1]; [3]
  other: NP-40-insoluble aggregation: increases
[2]; [3]
  expression_or_secretion: decreases

## Surfactant protein A2 (SP-A2): N207S
[1]; [3]
  other: NP-40-insoluble aggregation: increases
[2]; [3]
  expression_or_secretion: decreases

## Surfactant protein A2 (SP-A2): N207T
[1]; [3]
  other: NP-40-insoluble aggregation: increases
[2]; [3]
  expression_or_secretion: decreases

## Surfactant protein A2 (SP-A2): swainsonine
[1]; [4]
  other: NP-40-insoluble aggregation: no change
[2]; [4]
  expression_or_secretion: no change

## Surfactant protein A2 (SP-A2): tunicamycin
[1]; [5]
  other: NP-40-insoluble aggregation: increases
[2]; [5]
  expression_or_secretion: decreases
